Substitutions are numbered along the chain they refer to.
B1: enzymatically deglycosylated m1022C3 (antibody, V domains shown)
VH: QVTLKESGPGILQPSQTLSLTCSFSGFSLDTSGMGVSWIRQPSGKGLEWLAHIYWDDDKRYNPSLKSRLTISKDTSSNQVFLKITSLDTADTATYYCARRSHFGNYYYAMDYWGQGTSVTVTS
VL: DVQMTQTTSSLSASLGDRVTISCRASQDISSYLNWYQQKPDGTFKLLIFYTSRLQSGVPSKYSGSGSGTDYSLTISNLEQEDIAAYFCQQGKTLPLTFGAGTKLELK
notes: also called enzymatically deglycosylated 1022C3
B2: m1022C3 (murine anti-ADAM17 monoclonal antibody 1022C3, hybridoma I-4686) (antibody, V domains shown)
VH: B1 VH with D30N
VL: B1 VL
modifications: N-glycosylated asparagine in CDR-H1
notes: Murine antibody from a hybridoma; also called mAb 1022C3; mAb m1022C3

Columns and labels:
[1] = biological target: T1, human ADAM17 on tumour cells (A431, MCF-7, NCI-H1299) (human, UniProt P78536 215-824); test: binding to NCI-H1299 tumour cells, read as MFI against antibody concentration (Log [M])
T1 construct: Endogenous ADAM17 on human tumour cell lines; also called cellular form of ADAM17
T1 sequence (P78536 215-824 limits assumed): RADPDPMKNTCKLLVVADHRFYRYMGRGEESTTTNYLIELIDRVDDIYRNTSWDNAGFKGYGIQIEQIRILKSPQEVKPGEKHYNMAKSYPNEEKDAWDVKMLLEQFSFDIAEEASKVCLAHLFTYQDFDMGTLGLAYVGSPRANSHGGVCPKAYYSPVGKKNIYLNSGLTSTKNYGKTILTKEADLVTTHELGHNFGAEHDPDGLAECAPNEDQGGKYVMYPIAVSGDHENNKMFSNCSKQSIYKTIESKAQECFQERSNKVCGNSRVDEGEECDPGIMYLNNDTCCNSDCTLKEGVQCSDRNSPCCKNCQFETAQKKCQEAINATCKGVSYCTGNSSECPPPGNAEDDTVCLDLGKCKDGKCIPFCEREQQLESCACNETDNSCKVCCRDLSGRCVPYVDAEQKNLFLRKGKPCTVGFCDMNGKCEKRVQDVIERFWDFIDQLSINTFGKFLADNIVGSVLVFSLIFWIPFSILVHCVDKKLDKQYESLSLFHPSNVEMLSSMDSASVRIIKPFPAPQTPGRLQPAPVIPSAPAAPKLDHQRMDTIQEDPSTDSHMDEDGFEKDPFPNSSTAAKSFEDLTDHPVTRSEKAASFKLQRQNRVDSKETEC

[2] = biological target: soluble ADAM17 (extracellular domain of ADAM-17) (human, UniProt P78536 215-671); test: SPR Biacore, antibody captured on rabbit anti-mouse IgG, soluble ADAM17 400 to 12.5 nM, 1:1 Langmuir model
Sequence of soluble ADAM17 (extracellular domain of ADAM-17) (P78536 215-671): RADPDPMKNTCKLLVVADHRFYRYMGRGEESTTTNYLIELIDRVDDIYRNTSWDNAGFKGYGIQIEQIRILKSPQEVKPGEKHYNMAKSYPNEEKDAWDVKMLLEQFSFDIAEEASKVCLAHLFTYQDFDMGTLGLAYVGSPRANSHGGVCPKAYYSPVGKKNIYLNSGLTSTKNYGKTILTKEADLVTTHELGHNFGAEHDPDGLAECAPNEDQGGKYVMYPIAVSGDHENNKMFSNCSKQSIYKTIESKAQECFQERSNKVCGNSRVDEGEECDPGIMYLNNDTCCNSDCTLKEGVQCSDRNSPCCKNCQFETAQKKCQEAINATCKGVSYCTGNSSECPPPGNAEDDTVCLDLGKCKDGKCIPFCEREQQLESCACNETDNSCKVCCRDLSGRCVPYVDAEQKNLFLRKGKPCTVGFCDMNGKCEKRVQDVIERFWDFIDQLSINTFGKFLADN
Method: The antibody (ligand) was bound to the second flowcell of a Biacore CM5 sensor chip (GE Healthcare) activated on both flowcells with a Rabbit anti-Mouse (RAM) IgG (H+L) covalently linked to the carboxymethyldextran matrix. Soluble ADAM17 (analyte) at concentrations ranging from 400 to 12.5 nM obtained by a two fold dilution scheme (assuming a molecular weight of 52 kDa) was injected onto the surface at a flow rate of 30 μl/min in a 120 s pulse (association) plus an extra 180 s delay for the dissociation phase measurement. The RAM surface was regenerated using NaOH 30 mM, NaCl 150 mM and 10 mM Glycine, HCl pH 1.5 buffer solutions. Curves obtained at each concentration were double referenced by first subtracting the signal from the reference FC1 surface (RAM without any mouse anti-TACE mAb) followed by subtraction of the signal obtained from a running buffer injection (Biacore HBS-EP buffer).
Data were processed using BIAevaluation 3.1 software using the 1:1 Langmuir model. The suitability of the fit was measured by the values of the Refractive Index (RI) which have to tend to zero and the κ² value.

[3] = biological target: ADAM17 fragments and chimeric constructs giving the positive response (BIAcore); test: SPR Biacore X100, about 700 RU m1022C3 captured, construct at 250 nM for 3 min
[4] = biological target: M1-671 (p-c-d-mpd) murine ADAM17 human Fc fusion (murine) (UniProt Q9Z0F8); test: as above
Sequence of M1-671 (p-c-d-mpd) murine ADAM17 human Fc fusion (murine) (Q9Z0F8 18-671 limits assumed, form in doubt): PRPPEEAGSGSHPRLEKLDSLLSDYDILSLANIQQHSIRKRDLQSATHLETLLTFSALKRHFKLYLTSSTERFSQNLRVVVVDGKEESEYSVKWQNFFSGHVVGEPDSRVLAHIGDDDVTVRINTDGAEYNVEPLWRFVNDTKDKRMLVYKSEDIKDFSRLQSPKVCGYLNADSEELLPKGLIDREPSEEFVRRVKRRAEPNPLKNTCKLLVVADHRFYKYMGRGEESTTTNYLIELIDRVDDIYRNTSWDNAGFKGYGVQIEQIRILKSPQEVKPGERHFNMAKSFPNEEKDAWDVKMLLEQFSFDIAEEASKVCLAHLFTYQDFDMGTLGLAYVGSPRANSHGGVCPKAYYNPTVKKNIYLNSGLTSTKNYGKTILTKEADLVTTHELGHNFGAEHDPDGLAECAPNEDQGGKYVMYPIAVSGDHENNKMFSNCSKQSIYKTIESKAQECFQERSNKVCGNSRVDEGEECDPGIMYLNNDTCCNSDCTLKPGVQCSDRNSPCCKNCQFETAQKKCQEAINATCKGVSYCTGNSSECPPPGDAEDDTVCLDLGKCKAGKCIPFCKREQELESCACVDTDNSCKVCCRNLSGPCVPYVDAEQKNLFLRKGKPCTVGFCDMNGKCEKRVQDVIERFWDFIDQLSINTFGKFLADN

[5] = biological target: M1-602H603-671 (p-c-d-mpd (Nter)-MPD (Cter)) murine/human chimeric ADAM17 human Fc fusion (murine; human) (UniProt Q9Z0F8); test: as above
Sequence of M1-602H603-671 (p-c-d-mpd (Nter)-MPD (Cter)) murine/human chimeric ADAM17 human Fc fusion (murine; human) (Q9Z0F8 other isoform, or with tags, fused parts or gaps mutant limits assumed, form in doubt): as the sequence (Q9Z0F8 18-671 limits assumed, form in doubt) above, with N589D, P593R counted along it

[6] = biological target: T1, human ADAM17 on tumour cells (A431, …); test: cell-based or functional assay
[7] = biological target: T2, H475-563 (D) human ADAM17 human Fc fusion (human, UniProt P78536 475-563); test: SPR Biacore X100, about 700 RU m1022C3 captured, construct at 250 nM for 3 min
T2 construct: Expressed in HEK293 and purified on protein A; not shown: human Fc domain at the C-terminus
T2 sequence (P78536 475-563): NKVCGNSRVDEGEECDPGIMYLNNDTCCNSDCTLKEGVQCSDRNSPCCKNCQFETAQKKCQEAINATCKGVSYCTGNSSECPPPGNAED
Method: (§1) The experiment was performed on a Biacore X100 device. The mAb 1022C3 is used as the ligand and the ADAM17 fragments and chimeric constructs are used as the analyte. The experiment is run at 10 μl/min at 25° C. on a rabbit anti-mouse polyclonal antibody (Mouse antibody capture kit, BR-1008-38, GE Healthcare) covalently linked to the matrix of both flowcells of a CM5 sensorchip (BR-1000-12) using the amine coupling kit (BR-1000-50, GE Healthcare), using the HBS-EP+ buffer (BR-1008-26, GE Healthcare) as the running buffer. This buffer is also used for the dilutions of the ligand and the analytes.

[8] = biological target: T3, H475-602 (D-MPD (Nter)) human ADAM17 human Fc fusion (human, UniProt P78536 475-602); test: as above
T3 construct: Expressed in HEK293 and purified on protein A; not shown: human Fc domain at the C-terminus
T3 sequence (P78536 475-602): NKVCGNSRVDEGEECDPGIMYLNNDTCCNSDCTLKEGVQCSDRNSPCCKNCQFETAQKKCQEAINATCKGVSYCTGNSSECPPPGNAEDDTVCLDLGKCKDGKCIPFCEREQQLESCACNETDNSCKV
Method: as §1

[9] = biological target: T4, H1-474 (P-C) human ADAM17 human Fc fusion (human, UniProt P78536 18-474); test: as above
T4 construct: Expressed in HEK293 and purified on protein A; not shown: human Fc domain at the C-terminus
T4 sequence (P78536 18-474): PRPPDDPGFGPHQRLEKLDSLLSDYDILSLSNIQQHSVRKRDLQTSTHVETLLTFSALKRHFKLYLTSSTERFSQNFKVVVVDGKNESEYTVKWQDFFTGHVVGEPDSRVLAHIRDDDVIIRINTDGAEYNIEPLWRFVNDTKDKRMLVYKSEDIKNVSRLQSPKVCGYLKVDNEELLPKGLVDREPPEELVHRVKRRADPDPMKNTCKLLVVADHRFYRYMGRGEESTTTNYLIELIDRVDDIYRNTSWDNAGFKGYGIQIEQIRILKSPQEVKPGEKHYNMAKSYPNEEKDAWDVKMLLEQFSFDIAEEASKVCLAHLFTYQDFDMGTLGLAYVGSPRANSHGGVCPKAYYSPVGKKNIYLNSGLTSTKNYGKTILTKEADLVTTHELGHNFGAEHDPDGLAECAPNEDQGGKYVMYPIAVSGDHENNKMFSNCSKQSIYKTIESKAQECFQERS
Method: as §1

[10] = biological target: T5, H223-602 (C-D MPD (Nter)) human ADAM17 human Fc fusion (human, UniProt P78536 223-602); test: as above
T5 construct: Expressed in HEK293 and purified on protein A; not shown: human Fc domain at the C-terminus
T5 sequence (P78536 223-602): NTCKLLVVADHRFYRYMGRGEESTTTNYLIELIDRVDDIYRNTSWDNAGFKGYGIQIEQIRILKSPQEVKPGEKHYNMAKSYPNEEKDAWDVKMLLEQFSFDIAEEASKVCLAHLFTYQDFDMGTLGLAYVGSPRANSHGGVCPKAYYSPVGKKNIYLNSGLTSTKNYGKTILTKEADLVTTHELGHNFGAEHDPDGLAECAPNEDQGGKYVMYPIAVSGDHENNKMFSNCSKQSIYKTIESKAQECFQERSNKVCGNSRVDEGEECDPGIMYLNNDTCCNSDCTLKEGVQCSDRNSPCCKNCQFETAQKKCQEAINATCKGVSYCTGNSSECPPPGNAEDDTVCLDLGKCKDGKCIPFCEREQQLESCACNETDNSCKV
Method: as §1

[11] = biological target: T6, H603-671 (MPD (Cter)) human ADAM17 human Fc fusion (human, UniProt P78536 603-671); test: as above
T6 construct: Expressed in HEK293 and purified on protein A; not shown: human Fc domain at the C-terminus
T6 sequence (P78536 603-671): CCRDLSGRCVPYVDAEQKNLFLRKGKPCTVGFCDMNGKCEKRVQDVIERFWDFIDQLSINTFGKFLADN
Method: as §1

[12] = biological target: T7, H223-563 (C-D) human ADAM17 human Fc fusion (human, UniProt P78536 223-563); test: as above
T7 construct: Expressed in HEK293 and purified on protein A; not shown: human Fc domain at the C-terminus
T7 sequence (P78536 223-563): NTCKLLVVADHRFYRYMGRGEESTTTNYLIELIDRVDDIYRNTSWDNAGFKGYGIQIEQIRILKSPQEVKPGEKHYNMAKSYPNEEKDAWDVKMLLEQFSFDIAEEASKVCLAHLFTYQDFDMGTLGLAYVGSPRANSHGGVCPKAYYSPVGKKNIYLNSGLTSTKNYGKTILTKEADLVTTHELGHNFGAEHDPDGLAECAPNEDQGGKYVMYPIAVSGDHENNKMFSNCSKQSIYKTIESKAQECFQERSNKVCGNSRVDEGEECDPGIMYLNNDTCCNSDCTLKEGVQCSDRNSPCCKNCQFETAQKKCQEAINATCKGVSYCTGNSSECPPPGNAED
Method: as §1

Binder | binding result [1] | Kd [2] | koff [2] | kon [2] | response (RU) [3] | response (RU) [4] | response (RU) [5] | IC50 (nM), inhibition of AREG-Nluc shedding from A431 cells [6] | IC50 (nM), inhibition of HB-EGF-Nluc shedding from A431 cells [6] | IC50 (nM), inhibition of TGFα-Nluc shedding from A431 cells [6] | IC50 (nM), inhibition of TNFα-Nluc shedding from A431 cells [6] | IC50 (nM), mean over the four substrates shed from A431 cells [6] | response (RU) [7] | response (RU) [8] | response (RU) [9] | response (RU) [10] | response (RU) [11] | response (RU) [12]
B1 | binds | – | – | – | – | – | – | – | – | – | – | – | – | – | – | – | – | –
B2 | – | 1.27 nM | 0.00036 s⁻¹ | 284000 M⁻¹ s⁻¹ | 90 to 140 RU | < 10 RU | < 10 RU | 0.067 nM | 0.062 nM | 0.093 nM | 0.054 nM | 0.069 nM | < 10 RU | < 10 RU | < 10 RU | < 10 RU | < 10 RU | < 10 RU

Source: patent US20160326257A1 (PIERRE FABRE MEDICAMENT, published 2016)
